Measurements reported in patent US20240279318A1 (NANJING LEGEND BIOTECH, published 2024).

B1: AS170036 VL1VH1-56N98F108A (scFv)
scFv: QSALTQPRSVSGSPGQSVTISCAGTSSDVGSENYVSWYQQHPGKAPKLMIYQVNKRASGVPDRFSGSKSGNTASLTISGLQAEDEADYYCASYRSSDFNIVFGGGTKLTVLGGGGSGGGGSGGGGSEVQLVESGGGLVQPGGSLRLSCAASGFTFSSYAMSWVRQAPGKGLEWVSTINSGTNSPYYADSVKGRFTISRDNSKNTLYLQMNSLRAEDTAVYYCAKNFFDGSWFLAPPAMDYWGQGTLVTVSSHHHHHH
notes: also called 49-AS170036 VL1VH1-56N98F108A
B2: HS57D (scFv)
scFv: QSALTQPRSVSGSPGQSVTISCAGTSSDVGSENYVSWYQQHPGKAPKLMIYQVNKRASGVPDRFSGSKSGNTASLTISGLQAEDEADYYCASYRSSDHNIVFGGGTKLTVLGGGGSGGGGSGGGGSEVQLVESGGGLVQPGGSLRLSCAASGFTFSSYAMSWVRQAPGKGLEWVSTINSGTGDPYYADSVKGRFTISRDNSKNTLYLQMNSLRAEDTAVYYCAKNFFDGSWFLGPPAMDYWGQGTLVTVSSHHHHHH
notes: AS170036 VL1VH1 scFv mutein
B3: HP110T (scFv)
scFv: QSALTQPRSVSGSPGQSVTISCAGTSSDVGSENYVSWYQQHPGKAPKLMIYQVNKRASGVPDRFSGSKSGNTASLTISGLQAEDEADYYCASYRSSDHNIVFGGGTKLTVLGGGGSGGGGSGGGGSEVQLVESGGGLVQPGGSLRLSCAASGFTFSSYAMSWVRQAPGKGLEWVSTINSGTGSPYYADSVKGRFTISRDNSKNTLYLQMNSLRAEDTAVYYCAKNFFDGSWFLGPTAMDYWGQGTLVTVSSHHHHHH
notes: AS170036 VL1VH1 scFv mutein
B4: HP110V (scFv)
scFv: QSALTQPRSVSGSPGQSVTISCAGTSSDVGSENYVSWYQQHPGKAPKLMIYQVNKRASGVPDRFSGSKSGNTASLTISGLQAEDEADYYCASYRSSDHNIVFGGGTKLTVLGGGGSGGGGSGGGGSEVQLVESGGGLVQPGGSLRLSCAASGFTFSSYAMSWVRQAPGKGLEWVSTINSGTGSPYYADSVKGRFTISRDNSKNTLYLQMNSLRAEDTAVYYCAKNFFDGSWFLGPVAMDYWGQGTLVTVSSHHHHHH
notes: AS170036 VL1VH1 scFv mutein
B5: HS57F (scFv)
scFv: QSALTQPRSVSGSPGQSVTISCAGTSSDVGSENYVSWYQQHPGKAPKLMIYQVNKRASGVPDRFSGSKSGNTASLTISGLQAEDEADYYCASYRSSDHNIVFGGGTKLTVLGGGGSGGGGSGGGGSEVQLVESGGGLVQPGGSLRLSCAASGFTFSSYAMSWVRQAPGKGLEWVSTINSGTGFPYYADSVKGRFTISRDNSKNTLYLQMNSLRAEDTAVYYCAKNFFDGSWFLGPPAMDYWGQGTLVTVSSHHHHHH
notes: AS170036 VL1VH1 scFv mutein
B6: HP110G (scFv)
scFv: QSALTQPRSVSGSPGQSVTISCAGTSSDVGSENYVSWYQQHPGKAPKLMIYQVNKRASGVPDRFSGSKSGNTASLTISGLQAEDEADYYCASYRSSDHNIVFGGGTKLTVLGGGGSGGGGSGGGGSEVQLVESGGGLVQPGGSLRLSCAASGFTFSSYAMSWVRQAPGKGLEWVSTINSGTGSPYYADSVKGRFTISRDNSKNTLYLQMNSLRAEDTAVYYCAKNFFDGSWFLGPGAMDYWGQGTLVTVSSHHHHHH
notes: AS170036 VL1VH1 scFv mutein
B7: HS57W (scFv)
scFv: QSALTQPRSVSGSPGQSVTISCAGTSSDVGSENYVSWYQQHPGKAPKLMIYQVNKRASGVPDRFSGSKSGNTASLTISGLQAEDEADYYCASYRSSDHNIVFGGGTKLTVLGGGGSGGGGSGGGGSEVQLVESGGGLVQPGGSLRLSCAASGFTFSSYAMSWVRQAPGKGLEWVSTINSGTGWPYYADSVKGRFTISRDNSKNTLYLQMNSLRAEDTAVYYCAKNFFDGSWFLGPPAMDYWGQGTLVTVSSHHHHHH
notes: AS170036 VL1VH1 scFv mutein
B8: HS57Y (scFv)
scFv: QSALTQPRSVSGSPGQSVTISCAGTSSDVGSENYVSWYQQHPGKAPKLMIYQVNKRASGVPDRFSGSKSGNTASLTISGLQAEDEADYYCASYRSSDHNIVFGGGTKLTVLGGGGSGGGGSGGGGSEVQLVESGGGLVQPGGSLRLSCAASGFTFSSYAMSWVRQAPGKGLEWVSTINSGTGYPYYADSVKGRFTISRDNSKNTLYLQMNSLRAEDTAVYYCAKNFFDGSWFLGPPAMDYWGQGTLVTVSSHHHHHH
notes: AS170036 VL1VH1 scFv mutein
B9: HS57A (scFv)
scFv: QSALTQPRSVSGSPGQSVTISCAGTSSDVGSENYVSWYQQHPGKAPKLMIYQVNKRASGVPDRFSGSKSGNTASLTISGLQAEDEADYYCASYRSSDHNIVFGGGTKLTVLGGGGSGGGGSGGGGSEVQLVESGGGLVQPGGSLRLSCAASGFTFSSYAMSWVRQAPGKGLEWVSTINSGTGAPYYADSVKGRFTISRDNSKNTLYLQMNSLRAEDTAVYYCAKNFFDGSWFLGPPAMDYWGQGTLVTVSSHHHHHH
notes: AS170036 VL1VH1 scFv mutein
B10: HS57H (scFv)
scFv: QSALTQPRSVSGSPGQSVTISCAGTSSDVGSENYVSWYQQHPGKAPKLMIYQVNKRASGVPDRFSGSKSGNTASLTISGLQAEDEADYYCASYRSSDHNIVFGGGTKLTVLGGGGSGGGGSGGGGSEVQLVESGGGLVQPGGSLRLSCAASGFTFSSYAMSWVRQAPGKGLEWVSTINSGTGHPYYADSVKGRFTISRDNSKNTLYLQMNSLRAEDTAVYYCAKNFFDGSWFLGPPAMDYWGQGTLVTVSSHHHHHH
notes: AS170036 VL1VH1 scFv mutein; also called AS170036 VL1VH1-VHS57H
B11: HS57K (scFv)
scFv: QSALTQPRSVSGSPGQSVTISCAGTSSDVGSENYVSWYQQHPGKAPKLMIYQVNKRASGVPDRFSGSKSGNTASLTISGLQAEDEADYYCASYRSSDHNIVFGGGTKLTVLGGGGSGGGGSGGGGSEVQLVESGGGLVQPGGSLRLSCAASGFTFSSYAMSWVRQAPGKGLEWVSTINSGTGKPYYADSVKGRFTISRDNSKNTLYLQMNSLRAEDTAVYYCAKNFFDGSWFLGPPAMDYWGQGTLVTVSSHHHHHH
notes: AS170036 VL1VH1 scFv mutein; also called AS170036 VL1VH1-VHS57K
B12: HS57T (scFv)
scFv: QSALTQPRSVSGSPGQSVTISCAGTSSDVGSENYVSWYQQHPGKAPKLMIYQVNKRASGVPDRFSGSKSGNTASLTISGLQAEDEADYYCASYRSSDHNIVFGGGTKLTVLGGGGSGGGGSGGGGSEVQLVESGGGLVQPGGSLRLSCAASGFTFSSYAMSWVRQAPGKGLEWVSTINSGTGTPYYADSVKGRFTISRDNSKNTLYLQMNSLRAEDTAVYYCAKNFFDGSWFLGPPAMDYWGQGTLVTVSSHHHHHH
notes: AS170036 VL1VH1 scFv mutein
B13: HS57M (scFv)
scFv: QSALTQPRSVSGSPGQSVTISCAGTSSDVGSENYVSWYQQHPGKAPKLMIYQVNKRASGVPDRFSGSKSGNTASLTISGLQAEDEADYYCASYRSSDHNIVFGGGTKLTVLGGGGSGGGGSGGGGSEVQLVESGGGLVQPGGSLRLSCAASGFTFSSYAMSWVRQAPGKGLEWVSTINSGTGMPYYADSVKGRFTISRDNSKNTLYLQMNSLRAEDTAVYYCAKNFFDGSWFLGPPAMDYWGQGTLVTVSSHHHHHH
notes: AS170036 VL1VH1 scFv mutein; also called AS170036 VL1VH1-VHS57M
B14: HP110S (scFv)
scFv: QSALTQPRSVSGSPGQSVTISCAGTSSDVGSENYVSWYQQHPGKAPKLMIYQVNKRASGVPDRFSGSKSGNTASLTISGLQAEDEADYYCASYRSSDHNIVFGGGTKLTVLGGGGSGGGGSGGGGSEVQLVESGGGLVQPGGSLRLSCAASGFTFSSYAMSWVRQAPGKGLEWVSTINSGTGSPYYADSVKGRFTISRDNSKNTLYLQMNSLRAEDTAVYYCAKNFFDGSWFLGPSAMDYWGQGTLVTVSSHHHHHH
notes: AS170036 VL1VH1 scFv mutein
B15: HS57N (scFv)
scFv: QSALTQPRSVSGSPGQSVTISCAGTSSDVGSENYVSWYQQHPGKAPKLMIYQVNKRASGVPDRFSGSKSGNTASLTISGLQAEDEADYYCASYRSSDHNIVFGGGTKLTVLGGGGSGGGGSGGGGSEVQLVESGGGLVQPGGSLRLSCAASGFTFSSYAMSWVRQAPGKGLEWVSTINSGTGNPYYADSVKGRFTISRDNSKNTLYLQMNSLRAEDTAVYYCAKNFFDGSWFLGPPAMDYWGQGTLVTVSSHHHHHH
notes: AS170036 VL1VH1 scFv mutein
B16: HS57R (scFv)
scFv: QSALTQPRSVSGSPGQSVTISCAGTSSDVGSENYVSWYQQHPGKAPKLMIYQVNKRASGVPDRFSGSKSGNTASLTISGLQAEDEADYYCASYRSSDHNIVFGGGTKLTVLGGGGSGGGGSGGGGSEVQLVESGGGLVQPGGSLRLSCAASGFTFSSYAMSWVRQAPGKGLEWVSTINSGTGRPYYADSVKGRFTISRDNSKNTLYLQMNSLRAEDTAVYYCAKNFFDGSWFLGPPAMDYWGQGTLVTVSSHHHHHH
notes: AS170036 VL1VH1 scFv mutein; also called AS170036 VL1VH1-VHS57R
B17: HS57Q (scFv)
scFv: QSALTQPRSVSGSPGQSVTISCAGTSSDVGSENYVSWYQQHPGKAPKLMIYQVNKRASGVPDRFSGSKSGNTASLTISGLQAEDEADYYCASYRSSDHNIVFGGGTKLTVLGGGGSGGGGSGGGGSEVQLVESGGGLVQPGGSLRLSCAASGFTFSSYAMSWVRQAPGKGLEWVSTINSGTGQPYYADSVKGRFTISRDNSKNTLYLQMNSLRAEDTAVYYCAKNFFDGSWFLGPPAMDYWGQGTLVTVSSHHHHHH
notes: AS170036 VL1VH1 scFv mutein; also called AS170036 VL1VH1-VHS57Q
B18: HP110Q (scFv)
scFv: QSALTQPRSVSGSPGQSVTISCAGTSSDVGSENYVSWYQQHPGKAPKLMIYQVNKRASGVPDRFSGSKSGNTASLTISGLQAEDEADYYCASYRSSDHNIVFGGGTKLTVLGGGGSGGGGSGGGGSEVQLVESGGGLVQPGGSLRLSCAASGFTFSSYAMSWVRQAPGKGLEWVSTINSGTGSPYYADSVKGRFTISRDNSKNTLYLQMNSLRAEDTAVYYCAKNFFDGSWFLGPQAMDYWGQGTLVTVSSHHHHHH
notes: AS170036 VL1VH1 scFv mutein

Columns and labels:
[1] = target: T1, AFP158/HLA-A*02:01 complex (human); assay: SPR, fold vs AS170036 VL1VH1;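 further: crude scFv muteins immobilised on a sensor chip, peptide–MHC complex passed over at several concentrations, binding then buffer-driven dissociation, KD estimated from on- and off-rates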
T1 construct: flowed as analyte in SPR

[2] = target: T1, AFP158/HLA-A*02:01 complex; assay: SPR, crude scFv captured, pMHC analyte;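 further: complex injected at several concentrations over the chip, association phase then running buffer for dissociation, KD derived from on- and off-rates computed from both curves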
[3] = target: T2, AFP158/HLA-A*02:01 complex (human); assay: SPR, scFv captured, pMHC in flow;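 further: complex injected at several concentrations over crude scFv, association then running-buffer dissociation, KD estimated from kinetic on- and off-rate constants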
T2 construct: flowed over the chip in SPR; also called AFP158 pro
Experimental: (§1) The experiment was carried out as follows. The crude scFv protein were captured onto the sensorchip. Different concentrations (320, 160, 40 nM) of AFP158/HLA-A*02:01 complex flowed over the sensorchip surface, and were allowed to bind the antibody fragment for 100 s followed by injection of the running buffer to allow dissociation of the complex. On-rate (kd) and off-rate (kd) were calculated based on association and dissociation curve, and were used to estimate the equilibrium dissociation constant (KD).

[4] = target: T2, AFP158/HLA-A*02:01 complex; assay: SPR, KD ratio to AS170036 VL1VH1;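 further: crude scFv captured on a sensor chip, peptide–HLA complex passed over at several concentrations, association then buffer dissociation, KD derived from on- and off-rates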
Experimental: as §1

| Binder | Affinity increase [1] [fold] | Kd [2] [nM] | koff [2] [s⁻¹] | kon [2] [M⁻¹ s⁻¹] | Kd [3] [nM] | Affinity increase [4] [fold] |
| --- | --- | --- | --- | --- | --- | --- |
| B1 | 41.7 | 5.4 | 0.0015 | 270000 | – | – |
| B2 | – | – | – | – | 200 | 1.2 |
| B3 | – | – | – | – | 180 | 1.3 |
| B4 | – | – | – | – | 400 | 0.6 |
| B5 | – | – | – | – | 180 | 1.4 |
| B6 | – | – | – | – | 260 | 1 |
| B7 | – | – | – | – | 380 | 0.6 |
| B8 | – | – | – | – | 200 | 1.2 |
| B9 | – | – | – | – | 210 | 1.2 |
| B10 | – | – | – | – | 35 | 6.9 |
| B11 | – | – | – | – | 56 | 4.4 |
| B12 | – | – | – | – | 220 | 1.1 |
| B13 | – | – | – | – | 90 | 2.7 |
| B14 | – | – | – | – | 300 | 0.8 |
| B15 | – | – | – | – | 170 | 1.5 |
| B16 | – | – | – | – | 88 | 2.8 |
| B17 | – | – | – | – | 100 | 2.4 |
| B18 | – | – | – | – | 300 | 0.9 |
